The values that follow come from patent US20180105835, “TARGETED RNA KNOCKDOWN AND KNOCKOUT BY TYPE III-A Csm COMPLEXES” (VILNIUS UNIVERSITY, published 2018).

The data set concerns the target StCsm effector complex (Cas10-Csm2-Csm3-Csm4-Csm5, StCsm-40), wild type (Streptococcus thermophilus DGCC8004, UniProt A0A0A7HFE1;A0ABF7SXA0;A0A0A7HIF0;A0ABF7SXA2;A0ABF7SXA3 …). In words: EMSA; gel shift, StCsm-40; value only in figure. The note with it: tags: N-terminal StrepII on Csm2; chain copies: Cas10:1 Csm2:3 Csm3:5 Csm4:1 Csm5:1 (stated); label: 5'-33P. The procedure:
FIGS. 16A-B show in vitro cleavage activity of the StCsm targeted to the GFP transcript. Schematic representation of StCsm bound to the target RNA used for in vitro binding and cleavage assays is presented above the gels. RNA was 5′-end labeled with ³³P as indicated with asterisk. (FIG. 16A) Gel shift assay of RNA binding by StCsm-40. The binding reactions contained the ³³P-labeled GFP RNA (0.5 nM) and StCsm-40 at concentrations indicated by each lane. Samples were analyzed by PAGE under non-denaturating conditions. (FIG. 16B) StCsm-40 cleavage assay. Cleavage reactions were performed at 25° C. for indicated time intervals in the Reaction buffer supplemented with 10 mM Mg-acetate, 8 nM GFP RNA substrate and 160 nM StCsm-40. Samples were analyzed by denaturing PAGE, followed by phosphorimaging. […]
Binding assays were performed by incubating different amounts of Csm complexes with 0.5 nM of ³²P-5′-labeled NA in the Binding buffer (40 mM Tris, 20 mM acetic acid (pH 8.4 at 25° C.), 1 mM EDTA, 0.1 mg/ml BSA, 10% (v/v) glycerol). […] The Kd for NA binding by Csm-72 and Csm-40 was evaluated assuming the complex concentration at which half of the substrate is bound as a rough estimate of Kd value. For binding competition assay 0.5 nM ³²P-labelled S3/1 RNA was mixed with 0.5-5000 nM of unlabelled competitor NA and 0.3 nM StCsm-40, and analyzed by EMSA.
In general terms: Mobility shift assays separate free from complexed probe on a gel.

B1: jGFP crRNA 40 nt ; jGFP target RNA (coding-strand DNA sequence printed) (ssRNA ; ssRNA)
RNA 1: ACGGAAACAUAACCUUCGGGCAUGGCACUCUUGAAAAAGU
RNA 2: CAUGACUUUUUCAAGAGUGCCAUGCCCGAAGGUUAU
Take B1: the binding result is “binds”.
